Sequences and labels used below:
T1: Drosophila Orc3 (amino acid residues 47-721) of the trimmed ORC core (Drosophila, UniProt Q7K2L1 47-721)
T1 sequence (looked up): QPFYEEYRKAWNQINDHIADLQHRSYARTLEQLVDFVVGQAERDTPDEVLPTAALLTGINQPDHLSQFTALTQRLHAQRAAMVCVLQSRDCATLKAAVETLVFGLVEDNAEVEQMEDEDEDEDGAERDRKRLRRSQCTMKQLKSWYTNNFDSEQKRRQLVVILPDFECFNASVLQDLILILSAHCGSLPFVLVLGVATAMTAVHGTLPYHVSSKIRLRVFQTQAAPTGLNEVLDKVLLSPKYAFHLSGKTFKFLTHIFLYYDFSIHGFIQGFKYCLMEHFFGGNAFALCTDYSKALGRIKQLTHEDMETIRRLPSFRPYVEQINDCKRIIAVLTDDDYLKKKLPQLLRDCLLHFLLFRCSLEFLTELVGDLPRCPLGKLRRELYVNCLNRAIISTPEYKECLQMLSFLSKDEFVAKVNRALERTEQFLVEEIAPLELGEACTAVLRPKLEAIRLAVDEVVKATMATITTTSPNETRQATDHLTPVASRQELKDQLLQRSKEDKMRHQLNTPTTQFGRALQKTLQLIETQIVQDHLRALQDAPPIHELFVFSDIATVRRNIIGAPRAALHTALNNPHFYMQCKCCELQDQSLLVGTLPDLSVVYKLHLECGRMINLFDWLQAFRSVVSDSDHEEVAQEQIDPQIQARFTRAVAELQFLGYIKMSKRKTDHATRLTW

B1: Drosophila Orc1 (amino acid residues 533-924) of the trimmed ORC core (domain or fragment, UniProt O16810 533-924, looked up)
chain: SPSMQQRTDLPAKDSSKSELQLAREQLHVSVVPKSLPCREREFENIYAFLEGKIQDQCGGCMYVSGVPGTGKTATVTGVIRTLQRMAKQNELPAFEYLEINGMRLTEPRQAYVQIYKQLTGKTVSWEQAHALLEKRFTTPAPRRVTTVLLVDELDILCNRRQDVVYNLLDWPTKSAAKLVVVTIANTMDLPERLLMGKVTSRLGLTRLTFQPYSHKQLQEIVTARLGGSETFKGEAVQLVARKVAAVSGDARRALDICRRATEIADTAAVKCVTMLHVQQALAEMIASAKVQAIRNCSRMEQIFLQAIAAEVTRTGVEETTFMGVYQQVETIAAFMGVTFPPPGRALRLCSKLGAERLIISEHSRNDLFQKILLNVSADDIHYALRVEEMVN
B2: Drosophila Orc2 (amino acid residues 266-618) of the trimmed ORC core (domain or fragment, UniProt Q24168 266-618, looked up)
chain: QSARAKKSNEFVPESDGYFHSHASSKILTSDHTLDRLKNPRLAADRVFSLLSEIKTSAEHEGSINAIMEEYRSYFPKWMCILNEGFNILLYGLGSKHQLLQSFHREVLHKQTVLVVNGFFPSLTIKDMLDSITSDILDAGISPANPHEAVDMIEEEFALIPETHLFLIVHNLDGAMLRNVKAQAILSRLARIPNIHLLASIDHINTPLLWDQGKLCSFNFSWWDCTTMLPYTNETAFENSLLVQNSGELALSSMRSVFSSLTTNSRGIYMLIVKYQLKNKGNATYQGMPFRDLYSSCREAFLVSSDLALRAQLTEFLDHKLVKSKRSVDGSEQLTIPIDGALLQQFLEEQEKK
B3: Drosophila Orc5 (amino acid residues 1-460) (natural protein, UniProt Q24169 1-460, looked up)
chain: MEAICSSLEPLFPCREAAIETLGELIGDSSETYPSAIYLFGHSGTGKTALTRAFLKECGKRQNVRTAHLNAIECYTTKIMLEILLDSLAPDQGDALKVDNMLDFVEQLRRQAATRVEDQGFLIAVDNAERLRDMDANVLPVLLRLQELTNLNLCVILLSQLPFEKFYNKTGLSEIVCLHLAQYNKAETQRILGSDFQQVRNQLLEQFAQDKKRLEICQEAVTEDFYNNYLNLFLSVFYKACRDVPELQLTARKCLSTYLEPVLDGTVDATDISRLWRHIAGPLRSALTQIYMRIEKPAEEVEDFTAIEDQSVRKLAQSLELPYYAKFLLIAAFLASHNAAKQDKRLFVKHHGKQRKRMQTVNARAKTTEKMSTTLGPKSFSIDRLLAIFYAILEEKVGLTCNLLSQISTLVHLNLLSFVSGEQNIMEGSARLQCTIGLEFVLQIGKVVGFNVRQYLCDFM
B4: Drosophila Orc4 (amino acid residues 1-459) (natural protein, UniProt Q9W102 1-459, looked up)
chain: MPEADRELVSIRRFLKERLQRDYTTLRGYAKERSNVRLLLQRTAEMGESNSLLLLGPRGSGKTTLINSVLADLLPNKSFGENTLIVHLDGNLHTDDRVALKSITVQMQLENAADGKVFGSFAENLAFLLQCLKAGGKHSKSVIFILEEFDLFCAHHNQTLLYNLFDVSQSAQAPICVLGVTCRLDVIELLEKRVKSRFSHRQVFLFPSLRRFEDYVDLCRDLLSLPTGNSLLLAAEKIYNLQNIQSGALYFSRNHFDPGEYGFSPRLRDAWNKQICKVLATQQARSTLQALHDFDISEAYLKNFLFRLVAHLRPQSPHITAEKMAAVGSQFEGDDKIELLCGLSVLELCLIIAIKHHSQIYDRDSFNFEIIYARFSKFAKVSTTMQAVERSIVLKAFEHLRIAELIMPLTGGAGGGVGKVQKEFEMHKLALTYSQIHHCMQRYQALPTEVAQWAQSSLI

Assay in all cases: crystal structure
In assay [1] the target is T1, Drosophila Orc3 (amino acid residues …).
Assay [2] concerns the target B4.
Assay [3] deals with B1.
For assay [4], the target named is B3.

Turning to B1, the binding result in assay [1] and in assay [2] was “binds” throughout.
Turning to B2, the binding result in assay [3] and in assay [1] was “binds” each time.
Consider B3, for which the binding result in assay [1] is listed as “binds”.
With B4, the binding result in assay [4] is given as “binds”.
